The values that follow come from CN113061185A (EXCYTE BEIJING PHARMACEUTICAL TECH DEVELOPMENT CO LTD, dated 2021).

Residue numbers refer to the chain shown, from its start.

In assay [1] the target is T1, BCMA-Fc fusion protein (Acrobiosystems, catalogue no. BC7-H5254) (human, UniProt Q02223 1-54).
T1 construct: Bought fusion protein; Used as coated antigen in ELISA; also called BCMA抗原; BCMA-Fc抗原; not shown: human Fc
T1 sequence (looked up): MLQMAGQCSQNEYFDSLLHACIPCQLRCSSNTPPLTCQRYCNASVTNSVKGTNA
Put plainly: ELISA on BCMA; EC50 relative to J6. Background: ELISA stands for enzyme-linked immunosorbent assay.

Assay [2] has as its target T2, BCMA on the surface of BCMA-positive cell lines H929 (NCI-H929) and RPMI8226 (human, UniProt Q02223 1-184).
T2 construct: whole, on cells; Endogenous BCMA of the cell lines; also called 细胞膜表面的BCMA抗原
T2 sequence (looked up): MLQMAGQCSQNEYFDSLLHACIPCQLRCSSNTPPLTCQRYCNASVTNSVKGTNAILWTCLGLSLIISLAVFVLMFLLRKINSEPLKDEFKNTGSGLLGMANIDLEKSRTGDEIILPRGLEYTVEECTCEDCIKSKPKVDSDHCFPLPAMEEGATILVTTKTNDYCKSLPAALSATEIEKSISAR
Put plainly: flow cytometry on H929 cells. On the technique in general: Flow cytometry measures light scatter and fluorescence of single cells or particles in a stream.

Assay [3] has as its target T2, BCMA on the surface of BCMA-positive …. Description: flow cytometry on RPMI8226 cells; EC50 relative to J6.
The target is the same in assay [4]. Put plainly: flow cytometry on RPMI8226 cells.
Assay [5] shares this target. Put plainly: flow cytometry, antibody titration on RPMI8226 cells.
Assay [6] concerns the target T1, BCMA-Fc fusion protein (Acrobiosystems, …). Put plainly: ELISA; affinity estimated from the EC50 ratio to J6 (J6 taken as 0.2 nM).
Assay [7] deals with T2, BCMA on the surface of BCMA-positive …. Put plainly: flow cytometry on RPMI8226 cells; EC50 relative to J6. The source holds these as a separate data set.
For assay [8] the target is unchanged. Description: flow cytometry (FACS), apparent affinity on BCMA-bearing cells.
The target in assay [9] is T1, BCMA-Fc fusion protein (Acrobiosystems, …). Put plainly: ELISA, intrinsic affinity.

B1: B10.3 (affinity-matured mutant of B10) (scFv)
scFv: QVQLQQSGAEVKKPGSSVKVSCKASGGTFSKSAIQWVRQAPGQGLEWMGGVIPIFGTANYAQKFQGRVTITADESTSTAYMELSSLRSEDTAVYYCARGWYLDLWGRGTLVTVSSGGSSRSSSSGGGGSGGGGLPVLTQPPSASGTPGQRVTISCSGSSNNIGGYSVNWYQQFPGTAPKLLIYRNNQRPSGVPDRFSGSKSGASASLAISGLQSEDEADYYCAAWDDSVIGWLFGTGTQLTVL
notes: also called 突变体B10.3
For orientation: EC50 means the concentration giving half of the maximal effect. Read a high EC50 as weaker potency. Regarding B1, in assay [1], the “Fold of J6 (EC50 ratio)” value was found to be 1.29 fold. Also, the “细胞结合百分率 (percent of cells bound)” value in assay [2] stood at 98%; in assay [4] it was 54.9%. Besides, the “相对于J6提高倍数 (fold improvement of EC50 over J6)” value in [3] was 97.1 fold. Besides, the half-maximal effective concentration (EC50) in assay [5] was determined as 0.0282 µg/mL. For the same molecule, the Kd in [6] is 0.26 nM.

B2: B10.4 (affinity-matured mutant of B10) (scFv)
scFv: B1 scFv with Q35M
notes: also called 突变体B10.4
Regarding B2, the “Fold of J6 (EC50 ratio)” value in assay [1] is 1.55 fold. For the same molecule, the “细胞结合百分率 (percent of cells bound)” value in assay [2] stood at 97.9%; in [4], 57.5%. Also, the “相对于J6提高倍数 (fold improvement of EC50 over J6)” value in [3] came out at 79.9 fold. Besides, it took 0.0343 µg/mL to reach a half-maximal effect in assay [5] (EC50). Besides, the Kd in [6] was 0.31 nM.

B3: B10.9 (affinity-matured mutant of B10) (scFv)
scFv: B1 scFv with V229E
notes: also called 突变体B10.9
Take B3: the “Fold of J6 (EC50 ratio)” value in [1] came to 1.43 fold. Moreover, the “细胞结合百分率 (percent of cells bound)” value in assay [2] was determined as 91.6%; in assay [4], 42.9%. In addition, the “相对于J6提高倍数 (fold improvement of EC50 over J6)” value in assay [3] amounted to 60.7 fold. The same molecule yielded an EC50 in [5] of 0.0451 µg/mL. Also, the Kd in [6] was 0.29 nM.

B4: B10.5 (affinity-matured mutant of B10) (scFv)
scFv: B1 scFv with Q35H, N160S, E217V, V229L, W232Y, L233V
notes: also called 突变体B10.5
B4: in assay [1], the “Fold of J6 (EC50 ratio)” value is 1.35 fold. The entries for the “细胞结合百分率 (percent of cells bound)” value in [2] and in assay [4] were 97.2% and 58.2%, respectively. The “相对于J6提高倍数 (fold improvement of EC50 over J6)” value in [3] was found to be 67.5 fold. This molecule displayed an EC50 in assay [5] of 0.0406 µg/mL. In addition, in [6], the Kd was 0.27 nM.

B5: B10 parental antibody as expressed and purified in Example 3 (antibody, V domains shown)
VH: QVQLQQSGAEVKKPGSSVKVSCKASGGTFSSYAISWVRQAPGQGLEWMGGIIPIFGTANYAQKFQGRVTITADESTSTAYMELSSLRSEDTAVYYCARGWYFDLWGRGTLVTVSS
VL: LPVLTQPPSASGTPGQRVTISCSGSSSNIGGYSVNWYQQFPGTAPKLLIYRNNQRPSGVPDRFSGSKSGASASLAISGLQSEDEADYYCAAWDDSLIGYVFGTGTQLTVL
notes: also called 亲本B10; B10亲本抗体
Take B5: the “细胞结合百分率 (percent of cells bound)” value in assay [2] came out at 75.3%; in assay [4], 5.54%. Moreover, the “fold improvement of EC50 over J6” value in assay [7] was about 1.5 fold. The values for the Kd in assay [8] and in assay [9] were 0.3 nM and about 10 nM, respectively. Also, the “相对于J6提高倍数 (fold improvement of EC50 over J6)” value in [3] came to 1.74 fold. Moreover, a half-maximal response in [5] (EC50) required 1.57 µg/mL.
